Experimental findings from patent US20150313192 are described below.

The subject of data set [1] is RELA TALEN11-1R (right monomer) (synthetic (Xanthomonas TALE)?). As to the kind of experiment: cell_activity. The settings on record: TALEN pair mRNA 2 ng/ul zygote injection, 8 of 39 piglets; 21% of embryos tested in vitro; assayed as pair with left monomer; left/right assignment to ….
Data set [2] has as its system RELA TALEN11-1L (left monomer) (synthetic (Xanthomonas TALE)?). As to the kind of experiment: cell_activity. The settings on record: TALEN pair mRNA 2 ng/ul zygote injection, 8 of 39 piglets; 21% of embryos tested in vitro; assayed as pair with right monomer; left/right assignment to ….

“AGTACCCTGAGGCTAT (double strand) [RELA TALEN right half-site]” had an activity (% edited of piglets born) in data set [1] of 21. “GCCCCCCCACACAGCTG (double strand) [RELA TALEN left half-site]” registered an activity (% edited of piglets born) in data set [2] of 21.
